Assay [1] deals with human PlGF-1 comprising amino acids 1-137 produced in human embryonic kidney cells (human) (UniProt P49763). Put plainly: Format 1 …, capture 2-826-335, detection 1-255-713; sFlt-1 77 pmol/L (ratio 2.5).
The target is the same in assay [2]. Put plainly: Format 1 …, capture 2-826-335, detection 1-255-713; sFlt-1 920 pmol/L (ratio 30).
In assay [3] the target is recombinant human PlGF-1 (comprising amino acids 1-131) expressed in E. coli (R&D Systems) (human) (UniProt P49763). Nature of the assay: … sandwich, capture MAb255, detection MAb826; antigen 750 pg/mL.
The target in assay [4] is T1, CHO human PlGF-1 comprising amino acids 1-137 (human PlGF-1-His (1-131), CHO 6305) (human, UniProt P49763 19-221, N-glycans at N21 (completely glycosylated) and N89 (partially glycosylated)).
T1 construct: Mature human PlGF-1 with 6xHis tag (137 amino acids); also called CHO (1-137)
T1 sequence: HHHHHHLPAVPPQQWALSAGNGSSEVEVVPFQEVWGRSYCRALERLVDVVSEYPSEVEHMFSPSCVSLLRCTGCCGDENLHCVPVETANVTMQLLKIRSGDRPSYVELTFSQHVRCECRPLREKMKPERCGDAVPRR
Nature of the assay: … sandwich, capture MAb255, detection pAb264; antigen 0 pg/mL (blank).

In assay [5] the target is T2, human PlGF-1 fragment (comprising amino acids 17-131) produced in human embryonic kidney cells (human, UniProt P49763 35-221).
T2 sequence: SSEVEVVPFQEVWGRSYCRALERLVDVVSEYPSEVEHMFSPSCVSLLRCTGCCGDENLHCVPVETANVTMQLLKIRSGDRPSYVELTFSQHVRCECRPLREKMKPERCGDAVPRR
The assay is described as above.

For assay [6], the target named is T3, human PlGF-1 comprising amino acids 1-137 produced in human embryonic kidney cells (human, UniProt P49763 19-221).
T3 construct: Mature human PlGF-1 with 6xHis tag; also called HEK (1-137); full length HEK human PlGF-1 (1-137)
T3 sequence: T1 sequence
The assay is described as above.

For assay [7], the target named is T4, CHO human PlGF-1 fragment (comprising amino acids 17-131; ATCC PTA-8540) (human, UniProt P49763 35-221).
T4 sequence: T2 sequence
Described as above.

Assay [8] concerns the target T1, CHO human PlGF-1 comprising amino acids …. Put plainly: … sandwich, capture MAb826, detection pAb264; antigen 1500 pg/mL.
The target in assay [9] is T2, human PlGF-1 fragment (comprising amino …). The description is as above.
For assay [10], the target named is T3, human PlGF-1 comprising amino acids …. Described as above.
The target in assay [11] is T4, CHO human PlGF-1 fragment (comprising …). The description is as above.
The target in assay [12] is T2, human PlGF-1 fragment (comprising amino …). Put plainly: … sandwich, capture MAb826, detection pAb264; antigen 0 pg/mL (blank).
Assay [13] addresses T3, human PlGF-1 comprising amino acids …. The assay is described as above.
The target of assay [14] is T4, CHO human PlGF-1 fragment (comprising …). The assay is described as above.
In assay [15] the target is T1, CHO human PlGF-1 comprising amino acids …. Put plainly: … sandwich, capture MAb826, detection pAb264; antigen 250 pg/mL.
Assay [16] addresses T2, human PlGF-1 fragment (comprising amino …). Described as above.
Assay [17] deals with T3, human PlGF-1 comprising amino acids …. The description is as above.
The target in assay [18] is T4, CHO human PlGF-1 fragment (comprising …). The description is as above.

From patent publication US20100015637A1 (AbbVie / Abbott, published 2010) come the findings set out here.

On to “native sFlt-1, isolated from human placental tissue (from UniProt P17948 27-687) (receptor)”, for which, in assay [1], the % Inhibition turned out to be 41.9% and the PlGF-1 Measured came to 594 pg/mL. In [2], the % Inhibition is 90.7% and the PlGF-1 Measured was found to be 95.1 pg/mL.

B1: monoclonal antibody 1-255-713 (produced by murine hybridoma cell line 1-255-713, ATCC PTA-8536) (antibody, mouse IgG2a, V domains shown)
VH: QVHLQQSGAELMKPGASVKISCKATGYTFSSYWIEWVKQRPGHGLEWIGEILPGSVSNNFNEKFKDKATLTADPSSNTAYIQVSSLTSEDSAVYYCARSTGFYYGGNYFDHWGQGTTLAVSS
VL: DVVMTQTPLSLPVSPGDQASISCRSSQSLVHSNGHTYLHWYLQKPGQSPKLLIYKVSNRFSGVPDRVSGSGSGTDFTLKISRVEAEDLGVYFCSQSTHVPPTFGGGTKLEIKR
notes: also called MAb255
Take B1: the RLU in [3] was determined as 780000 RLU; in assay [4], 14500 RLU; in assay [5], 14200 RLU; in assay [6] it was 14200 RLU; in assay [7], 14400 RLU.

B2: monoclonal antibody 2-826-335 (produced by murine hybridoma cell line 2-826-335, ATCC PTA-8539) (antibody, mouse IgG1, V domains shown)
VH: QVQLKQSGPGLVQPSQSLSITCTVSGFSLTTYGIHWVRQSPGKGLEWLGVMWSGGDTDYDAAFISRLSISKDNSKSQVFFKMNSLQANDTGIYYCARYRFYGMDYWGQGTSVTVSS
VL: AIQMTQSSSSFSVSLGDRVTITCKASEDIYNRFAWYQQKPGNAPRLLISGAASLEAGVPSRFSGSGSGQDYTLSITSLQTEDVATYYCQQYWSTPWTFGGGTKLEIKR
notes: also called MAb826
As for B2, the RLU was 329000 RLU in assay [8]; 624000 RLU in assay [9]; 760000 RLU in [10]; 456000 RLU in assay [11]; 6590 RLU in assay [12]; 6530 RLU in assay [13]. Moreover, the RLU amounted to 6680 RLU in [14]; 66100 RLU in assay [15]; 126000 RLU in assay [16]; 173000 RLU in assay [17]; 93600 RLU in [18].

As a reminder, the % Inhibition is how much of the control response was suppressed.
